According to patent US20090304580A1:
pEC50: −log10 of the molar value.

Experiments:
[1] = molecular target: PAM4 antigen (human pancreatic cancer mucin, CaPan1) (human); experiment: ELISA on target mucin antigen (FIG. 9)
[2] = molecular target: PAM4 antigen (human pancreatic cancer mucin, CaPan1) (human); experiment: size-exclusion elution of the 111In-IMP-288/TF10 complex with excess mucin
[3] = molecular target: IMP-288 di-HSG hapten-peptide, DOTA-D-Tyr-D-Lys(HSG)-D-Glu-D-Lys(HSG)-NH2; experiment: size-exclusion elution of 111In-IMP-288 with TF10
[4] = molecular target: PAM4 antigen (human pancreatic cancer mucin, CaPan1) (human); experiment: radiolabelled TF10 mixed with mucin, size-exclusion analysis

Row | pEC50 [1] | percent of TF10-bound peptide eluting at higher molecular weight with excess mucin [2] | percent bound [3] | immunoreactive fraction bound [4] | Substance
1 | 8.74 |  |  |  | PAM4-F(ab')2 (antibody)
2 | 8.85 | 92% | 90% | 87% | TF10 bispecific ([hPAM4]2 x h679) trimeric DNL construct (bispecific antibody)
